Here are results for 1 substance from patent US20260152561A1.

For assay [1], the target named is PD-L1 on tumor cells (EMT6-PD-L1, U2OS) (UniProt Q9NZQ7). Briefly: cell-based or functional assay.
Assay [2] addresses MICA/MICB on tumor cells (MGC-803, U2OS). As to the kind of experiment: cell-based or functional assay.

Sequence of UniProt Q9NZQ7 (Q9NZQ7 19-290 limits assumed): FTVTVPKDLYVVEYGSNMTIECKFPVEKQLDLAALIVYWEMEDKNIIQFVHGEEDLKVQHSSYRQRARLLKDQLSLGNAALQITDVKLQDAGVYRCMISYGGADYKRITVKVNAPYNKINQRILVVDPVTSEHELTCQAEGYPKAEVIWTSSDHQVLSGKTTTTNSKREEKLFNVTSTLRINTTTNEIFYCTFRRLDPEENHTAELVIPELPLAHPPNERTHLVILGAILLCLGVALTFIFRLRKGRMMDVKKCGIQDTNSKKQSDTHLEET

Regarding “dual-targeting chimeric antigen receptor PD1-DAP10-41BB-P2A-NKG2D-IgG4-CD28-41BB-CD3ζ, expressed on NK92 cells (PN-CAR-NK92)”, the cytotoxicity (luciferase killing assay, effector-to-target ratio 5:1) on U2OS cells in assay [1] and in assay [2] was 6 fold throughout.
